Data as given in IntAct's records for PubMed 29039417.

B1: Protein PTHB1 (Homo sapiens), Q3SYG4 (parent)
chain: MSLFKARDWWSTILGDKEEFDQGCLCLANVDNSGNGQDKIIVGSFMGYLRIFSPHPAKTGDGAQAEDLLLEVDLRDPVLQVEVGKFVSGTEMLHLAVLHSRKLCVYSVSGTLGNVEHGNQCQMKLMYEHNLQRTACNMTYGSFGGVKGRDLICIQSMDGMLMVFEQESYAFGRFLPGFLLPGPLAYSSRTDSFLTVSSCQQVESYKYQVLAFATDADKRQETEQQKLGSGKRLVVDWTLNIGEQALDICIVSFNQSASSVFVLGERNFFCLKDNGQIRFMKKLDWSPSCFLPYCSVSEGTINTLIGNHNNMLHIYQDVTLKWATQLPHIPVAVRVGCLHDLKGVIVTLSDDGHLQCSYLGTDPSLFQAPNVQSRELNYDELDVEMKELQKIIKDVNKSQGVWPMTEREDDLNVSVVVSPNFDSVSQATDVEVGTDLVPSVTVKVTLQNRVILQKAKLSVYVQPPLELTCDQFTFEFMTPDLTRTVSFSVYLKRSYTPSELEGNAVVSYSRPTDRNPDGIPRVIQCKFRLPLKLICLPGQPSKTASHKITIDTNKSPVSLLSLFPGFASQSDDDQVNVMGFHFLGGARITVLASKTSQRYRIQSEQFEDLWLITNELILRLQEYFEKQGVKDFACSFSGSIPLQEYFELIDHHFELRINGEKLEELLSERAVQFRAIQRRLLARFKDKTPAPLQHLDTLLDGTYKQVIALADAVEENQGNLFQSFTRLKSATHLVILLIALWQKLSADQVAILEAAFLPLQEDTQELGWEETVDAAISHLLKTCLSKSSKEQALNLNSQLNIPKDTSQLKKHITLLCDRLSKGGRLCLSTDAAAPQTMVMPGGCTTIPESDLEERSVEQDSTELFTNHRHLTAETPRPEVSPLQGVSE
partner: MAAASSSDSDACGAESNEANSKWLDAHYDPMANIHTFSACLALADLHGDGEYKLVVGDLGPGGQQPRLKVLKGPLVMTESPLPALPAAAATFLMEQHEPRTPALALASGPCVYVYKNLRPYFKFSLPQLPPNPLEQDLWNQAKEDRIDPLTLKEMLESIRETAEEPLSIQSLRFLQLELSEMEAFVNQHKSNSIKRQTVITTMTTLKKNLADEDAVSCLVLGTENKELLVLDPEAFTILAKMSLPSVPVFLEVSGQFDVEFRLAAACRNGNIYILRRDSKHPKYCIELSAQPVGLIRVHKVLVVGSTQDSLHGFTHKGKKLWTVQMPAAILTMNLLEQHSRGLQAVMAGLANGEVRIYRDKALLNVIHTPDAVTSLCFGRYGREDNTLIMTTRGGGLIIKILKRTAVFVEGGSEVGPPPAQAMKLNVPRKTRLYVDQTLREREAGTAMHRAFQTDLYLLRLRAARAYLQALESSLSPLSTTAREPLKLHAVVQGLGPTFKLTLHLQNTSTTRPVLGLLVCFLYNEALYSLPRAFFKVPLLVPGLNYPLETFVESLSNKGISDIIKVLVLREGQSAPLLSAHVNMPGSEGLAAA

Variants of: B1
Conditions: with bbs1_human BBS1, Q8NFJ9

| Variant | effect of a mutation on the interaction |
| --- | --- |
| D686K | with no effect |
| D517E | with no effect |
| L870E | with no effect |
| P691L | disrupting interaction strength |
| P691S | disrupting interaction strength |
| L752K | with no effect |
| R683E | with no effect |
| D804K | with no effect |
| E501K | with no effect |
| E501A | with no effect |
| P464A | with no effect |
| P834K | with no effect |
| S787K | with no effect |
| T725K | with no effect |
| S723A | disrupting interaction strength |
| S806E | with no effect |
| I612E | with no effect |
| S488K | with no effect |
| S488E | with no effect |
| E466K | with no effect |
| T697C | disrupting interaction strength |
| T697K | with no effect |
| T697A | with no effect |

| Variant | effect of a mutation on the interaction |
| --- | --- |
| E765A | with no effect |
| P758E | with no effect |
| N412A | with no effect |
| S558E | with no effect |
| L759A | with no effect |
| F487E | with no effect |
| S639K | with no effect |
| V856K | with no effect |
| D572A | with no effect |
| Q627A | with no effect |
| L436K | with no effect |
| S509K | with no effect |
| R587E | with no effect |
| L655K | with no effect |
| R868E | with no effect |
| L784E | with no effect |
| S729E | with no effect |
| S541E | with no effect |
| F474A | with no effect |
| Q462T | disrupting interaction strength |
| V430A | with no effect |
| F624A | with no effect |
| A872E | with no effect |

| Variant | effect of a mutation on the interaction |
| --- | --- |
| G638A | with no effect |
| E654K | with no effect |
| G518K | with no effect |
| C783E | with no effect |
| D422K | with no effect |
| D422A | with no effect |
| C634K | with no effect |
| D435A | with no effect |
| D435E | with no effect |
| K743E | with no effect |
| F636A | with no effect |
| L591A | with no effect |
| V485A | with no effect |
| Q672A | with no effect |
| Q672E | with no effect |
| L779E | with no effect |
| N503K | with no effect |
| E663K | with no effect |
| Q426E | with no effect |
| Q705K | with no effect |
| R493E | with no effect |
| V734A | with no effect |
| V413K | with no effect |

| Variant | effect of a mutation on the interaction |
| --- | --- |
| G822K | with no effect |
| A504K | with no effect |
| I617K | with no effect |
| G585E | with no effect |
| T473E | with no effect |
| W610A | with no effect |
| S637E | with no effect |
| G718A | with no effect |
| G584K | with no effect |
| G584A | with no effect |
| P564E | with no effect |
| N614K | with no effect |
| V444A | with no effect |
| S570L | disrupting interaction strength |
| V424K | with no effect |
| L536K | with no effect |
| I657E | with no effect |
| S667A | with no effect |
| R678K | with no effect |
| A567K | with no effect |
| T702C | disrupting interaction strength |
| L814A | with no effect |
| I523E | with no effect |

| Variant | effect of a mutation on the interaction |
| --- | --- |
| A746E | with no effect |
| K728E | with no effect |
| L467K | with no effect |
| F421K | with no effect |
| D480E | with no effect |
| K626E | with no effect |
| K554A | with no effect |
| G565S | disrupting interaction strength |
| C525A | with no effect |
| C525K | with no effect |
| L531A | with no effect |
| L531K | with no effect |
| F527E | with no effect |
| F527K | with no effect |
| P479A | with no effect |
| S849E | with no effect |
| S849A | with no effect |
| S555E | with no effect |
| R818E | with no effect |
| R679K | with no effect |
| V415K | with no effect |
| K821A | with no effect |
| N553K | with no effect |

| Variant | effect of a mutation on the interaction |
| --- | --- |
| N553A | with no effect |
| L699A | with no effect |
| Q883E | with no effect |
| V416A | with no effect |
| S425E | with no effect |
| S425K | with no effect |
| D409A | with no effect |
| V440K | with no effect |
| N515E | with no effect |
| Q807E | with no effect |
| Q807A | with no effect |
| S886E | with no effect |
| G767K | with no effect |
| V557A | with no effect |
| M837E | with no effect |
| F646K | with no effect |
| T434K | with no effect |
| G628E | with no effect |
| L446K | with no effect |
| F472K | with no effect |
| V450E | with no effect |
| G433K | with no effect |
| L559A | with no effect |

| Variant | effect of a mutation on the interaction |
| --- | --- |
| V713E | with no effect |
| Q791L | disrupting interaction strength |
| D410K | with no effect |
| D410E | with no effect |
| Y460A | with no effect |
| A833E | with no effect |
| A675K | with no effect |
| P537A | with no effect |
| P537K | with no effect |
| C826K | with no effect |
| L737A | with no effect |
| S596E | with no effect |
| T771A | with no effect |
| Q858E | with no effect |
| L825E | with no effect |
| E761K | with no effect |
| D773E | with no effect |
| E668A | with no effect |
| F864K | with no effect |
| F632K | with no effect |
| G579K | with no effect |
| S603A | with no effect |
| R514K | with no effect |

| Variant | effect of a mutation on the interaction |
| --- | --- |
| R674K | with no effect |
| R600K | with no effect |
| R600E | with no effect |
| E852A | with no effect |
| T805K | with no effect |
| Q798A | with no effect |
| Q798E | with no effect |
| S486K | with no effect |
| T871A | with no effect |
| T871K | with no effect |
| L709K | with no effect |
| G823K | with no effect |
| G823E | with no effect |
| D631E | with no effect |
| L757A | with no effect |
| C469E | with no effect |
| E853A | with no effect |
| L819A | with no effect |
| P540K | with no effect |
| P540E | with no effect |
| A754G | disrupting interaction strength |
| A754K | with no effect |
